{
  "source": "patent US20160130315A1",
  "about": "(AJOU UNIVERSITY INDUSTRY ACADEMIC COOPERATION FOUNDATION, published 2016)",
  "binders": {"B1": {"name": "b1b2 domains (275-595) of neuropilin-2 (receptor, UniProt O60462 275-595, looked up)", "chain": "FQCNVPLGMESGRIANEQISASSTYSDGRWTPQQSRLHGDDNGWTPNLDSNKEYLQVDLRFLTMLTAIATQGAISRETQNGYYVKSYKLEVSTNGEDWMVYRHGKNHKVFQANNDATEVVLNKLHAPLLTRFVRIRPQTWHSGIALRLELFGCRVTDAPCSNMLGMLSGLIADSQISASSTQEYLWSPSAARLVSSRSGWFPRIPQAQPGEEWLQVDLGTPKTVKGVIIQGARGGDSITAVEARAFVRKFKVSYSLNGKDWEYIQDPRTQQPKLFEGNMHYDTPDIRRFDPIPAQYVRVYPERWSPAGIGMRLEVLGCDWT", "notes": "range 275-595; Purified soluble domain; also called NRP2-b1b2; NRP-2 b1b2"}, "B2": {"name": "VEGF165A (ligand, UniProt P15692-4 27-191, looked up)", "chain": "APMAEGGGQNHHEVVKFMDVYQRSYCHPIETLVDIFQEYPDEIEYIFKPSCVPLMRCGGCCNDEGLECVPTEESNITMQIMRIKPHQGQHIGEMSFLQHNKCECRPKKDRARQENPCGPCSERRKHLFVQDPQTCKCSCKNTDSRCKARQLELNERTCRCDKPRR", "notes": "Control ligand; biotinylated in the ELISA; also called vascular endothelial cell growth factor-A"}, "B3": {"name": "b1b2 domains (273-586) of neuropilin-1 (receptor, UniProt O14786 273-586, looked up)", "chain": "FKCMEALGMESGEIHSDQITASSQYSTNWSAERSRLNYPENGWTPGEDSYREWIQVDLGLLRFVTAVGTQGAISKETKKKYYVKTYKIDVSSNGEDWITIKEGNKPVLFQGNTNPTDVVVAVFPKPLITRFVRIKPATWETGISMRFEVYGCKITDYPCSGMLGMVSGLISDSQITSSNQGDRNWMPENIRLVTSRSGWALPPAPHSYINEWLQIDLGEEKIVRGIIIQGGKHRENKVFMRKFKIGYSNNGSDWKMIMDDSKRKAKSFEGNNNYDTPELRTFPALSTRFIRIYPERATHGGLGLRMELLGCEVE", "notes": "range 273-586; Purified soluble domain; No tag described; also called NRP1-b1b2; NRP-1 b1b2"}, "B4": {"name": "Sema3A (26-760) (ligand, UniProt Q14563 26-760, looked up)", "chain": "KNNVPRLKLSYKEMLESNNVITFNGLANSSSYHTFLLDEERSRLYVGAKDHIFSFDLVNIKDFQKIVWPVSYTRRDECKWAGKDILKECANFIKVLKAYNQTHLYACGTGAFHPICTYIEIGHHPEDNIFKLENSHFENGRGKSPYDPKLLTASLLIDGELYSGTAADFMGRDFAIFRTLGHHHPIRTEQHDSRWLNDPKFISAHLISESDNPEDDKVYFFFRENAIDGEHSGKATHARIGQICKNDFGGHRSLVNKWTTFLKARLICSVPGPNGIDTHFDELQDVFLMNFKDPKNPVVYGVFTTSSNIFKGSAVCMYSMSDVRRVFLGPYAHRDGPNYQWVPYQGRVPYPRPGTCPSKTFGGFDSTKDLPDDVITFARSHPAMYNPVFPMNNRPIVIKTDVNYQFTQIVVDRVDAEDGQYDVMFIGTDVGTVLKVVSIPKETWYDLEEVLLEEMTVFREPTAISAMELSTKQQQLYIGSTAGVAQLPLHRCDIYGKACAECCLARDPYCAWDGSACSRYFPTAKRRTRRQDIRNGDPLTHCSDLHHDNHHGHSPEERIIYGVENSSTFLECSPKSQRALVYWQFQRRNEERKEEIRVDDHIIRTDQGLLLRSLQQKDSGNYLCHAVEHGFIQTLLKVTLEVIDTEHLEELLHKDDDGDGSKTKEMSNSMTPSQKVWYRDFMQLINHPNLNTMDEFCEQVWKRDRKQRRQRPGHTPGNSNKWKHLQENKKGRNRR", "notes": "range 26-760; Control ligand; Biotinylated in the ELISA; also called Semaphorin3A; Semaphorin 3A"}},
  "key": {"Sema3F (19-779)": {"target": "T1, Sema3F (19-779) (UniProt Q13275 19-779)", "T1 construct": "range 19-779; Control ligand; Biotinylated in the ELISA; also called Semaphorin 3F", "T1 sequence (looked up)": "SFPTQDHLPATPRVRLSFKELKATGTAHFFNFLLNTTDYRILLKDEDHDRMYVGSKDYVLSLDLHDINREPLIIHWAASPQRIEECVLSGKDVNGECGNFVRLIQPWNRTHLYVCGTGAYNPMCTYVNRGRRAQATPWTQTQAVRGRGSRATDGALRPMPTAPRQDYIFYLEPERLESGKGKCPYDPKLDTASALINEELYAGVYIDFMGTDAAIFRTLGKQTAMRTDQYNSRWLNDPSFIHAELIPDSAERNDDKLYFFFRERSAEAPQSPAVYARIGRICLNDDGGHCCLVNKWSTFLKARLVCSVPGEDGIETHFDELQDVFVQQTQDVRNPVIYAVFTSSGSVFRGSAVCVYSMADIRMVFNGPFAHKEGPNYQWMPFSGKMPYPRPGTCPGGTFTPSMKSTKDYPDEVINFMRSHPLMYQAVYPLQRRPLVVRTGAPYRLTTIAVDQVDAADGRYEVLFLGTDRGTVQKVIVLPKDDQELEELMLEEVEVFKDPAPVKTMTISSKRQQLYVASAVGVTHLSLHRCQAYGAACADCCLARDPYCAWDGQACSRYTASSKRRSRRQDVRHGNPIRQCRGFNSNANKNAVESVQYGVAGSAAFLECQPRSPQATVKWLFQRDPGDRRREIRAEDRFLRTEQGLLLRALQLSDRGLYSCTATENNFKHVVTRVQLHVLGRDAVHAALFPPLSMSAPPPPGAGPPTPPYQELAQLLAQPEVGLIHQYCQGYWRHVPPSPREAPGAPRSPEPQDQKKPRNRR", "test": "SPR Biacore 2000, NRP b1b2 on CM5 chip", "method": "(§1) Specifically, each b1b2 domain of neuropilin-1 and -2 was diluted with 10 mM Na-acetate buffer (pH 4.0), and fixed onto CM5 sensor chips (GE healthcare, USA) in about 1000 response units (RU). […] After bond and dissociation analysis, the regeneration of CM5 chip was performed by streaming a buffer (20 Mm NaOH, 1 M NaCl, pH 10.0) at a stream velocity 30 μl/min for 1 minute."}, "Sema3A (26-760)": {"target": "B4", "test": "SPR Biacore 2000, NRP b1b2 on CM5 chip"}, "[1]": {"target": "B3", "test": "competition ELISA on plate-bound NRP1-b1b2: VEGF165 titrated against Fc-15A22P (30 nM), absorbance at 405 nm [left panel Fc-15A22P]", "method": "(§2) Specifically, b1b2 domains (273-586) of neuropilin-1 and b1b2 domains (275-595) of neuropilin-2 were bound in 96-well EIA/RIA plates (COSTAR Corning In., USA) at room temperature for 1 hour, and then washed three times for 10 minutes with 0.1% PBST (0.1% Tween20, pH 7.4, 137 mM NaCl, 10 mM Phosphate, 2.7 mM KCl, SIGMA-ALDRICH co., USA). After binding for 1 hour with 5% skim milk (pH 7.4, 137 mM NaCl, 10 mM Phosphate, 2.7 mM KCl, SIGMA-ALDRICH co., USA), it was washed three times for 10 minutes with 0.1% PBST (0.1% Tween20, pH 7.4, 137 mM NaCl, 10 mM Phosphate, 2.7 mM KCl, SIGMA-ALDRICH co., USA)."}, "[2]": {"target": "B3", "test": "SPR Biacore 2000, NRP b1b2 on CM5 chip", "method": "as §1"}, "[3]": {"target": "B1", "test": "SPR Biacore 2000, NRP b1b2 on CM5 chip", "method": "as §1"}, "[4]": {"target": "B3", "test": "SPR Biacore 2000, NRP b1b2 on CM5 chip", "method": "as §1", "remark": "listed apart in the source"}, "[5]": {"target": "B1", "test": "SPR Biacore 2000, NRP b1b2 on CM5 chip", "method": "as §1", "remark": "listed apart in the source"}, "[6]": {"target": "B3", "test": "competition ELISA on plate-bound NRP1-b1b2: VEGF165 titrated against Fc-15F22P (30 nM), absorbance at 405 nm [right panel Fc-15F22P]", "method": "as §2"}, "[7]": {"target": "B3", "test": "competition ELISA on plate-bound NRP1-b1b2: Sema3A titrated against Fc-15F22P (30 nM), absorbance at 405 nm [right panel Fc-15F22P]", "method": "as §2"}, "[8]": {"target": "B3", "test": "competition ELISA on plate-bound NRP1-b1b2: Sema3A titrated against Fc-15A22P (30 nM), absorbance at 405 nm [left panel Fc-15A22P]", "method": "as §2"}},
  "note": "Where two headings read alike, the source gives them in different places.",
  "data": [
    {"binder": "B1", "values": [
      {"measurement": "Kd", "setting": "Sema3F (19-779)", "value": 0.345, "unit": "µM"},
      {"measurement": "koff", "setting": "Sema3F (19-779)", "value": 0.0015, "unit": "s⁻¹"},
      {"measurement": "kon", "setting": "Sema3F (19-779)", "value": 4340, "unit": "M⁻¹ s⁻¹"},
      {"measurement": "Kd", "setting": "Sema3A (26-760)", "value": 0.231, "unit": "µM"},
      {"measurement": "koff", "setting": "Sema3A (26-760)", "value": 0.00161, "unit": "s⁻¹"},
      {"measurement": "kon", "setting": "Sema3A (26-760)", "value": 6960, "unit": "M⁻¹ s⁻¹"}
    ]},
    {"binder": "B2", "values": [
      {"measurement": "IC50 (read off the curve)", "setting": "[1]", "value": "~0.003", "unit": "µM"},
      {"measurement": "Kd", "setting": "[2]", "value": 0.00351, "unit": "µM"},
      {"measurement": "koff", "setting": "[2]", "value": 0.00342, "unit": "s⁻¹"},
      {"measurement": "kon", "setting": "[2]", "value": 975000, "unit": "M⁻¹ s⁻¹"},
      {"measurement": "Kd", "setting": "[3]", "value": 0.032, "unit": "µM"},
      {"measurement": "koff", "setting": "[3]", "value": 0.00373, "unit": "s⁻¹"},
      {"measurement": "kon", "setting": "[3]", "value": 117000, "unit": "M⁻¹ s⁻¹"},
      {"measurement": "Kd", "setting": "[4]", "value": 0.00351, "unit": "µM"},
      {"measurement": "koff", "setting": "[4]", "value": 0.00342, "unit": "s⁻¹"},
      {"measurement": "kon", "setting": "[4]", "value": 975000, "unit": "M⁻¹ s⁻¹"},
      {"measurement": "Kd", "setting": "[5]", "value": 0.032, "unit": "µM"},
      {"measurement": "koff", "setting": "[5]", "value": 0.00373, "unit": "s⁻¹"},
      {"measurement": "kon", "setting": "[5]", "value": 117000, "unit": "M⁻¹ s⁻¹"},
      {"measurement": "IC50 (read off the curve)", "setting": "[6]", "value": "~0.002", "unit": "µM"}
    ]},
    {"binder": "B3", "values": [
      {"measurement": "Kd", "setting": "Sema3F (19-779)", "value": 0.245, "unit": "µM"},
      {"measurement": "koff", "setting": "Sema3F (19-779)", "value": 0.000973, "unit": "s⁻¹"},
      {"measurement": "kon", "setting": "Sema3F (19-779)", "value": 3980, "unit": "M⁻¹ s⁻¹"},
      {"measurement": "Kd", "setting": "Sema3A (26-760)", "value": 0.0279, "unit": "µM"},
      {"measurement": "koff", "setting": "Sema3A (26-760)", "value": 0.000808, "unit": "s⁻¹"},
      {"measurement": "kon", "setting": "Sema3A (26-760)", "value": 28900, "unit": "M⁻¹ s⁻¹"}
    ]},
    {"binder": "B4", "values": [
      {"measurement": "IC50 (read off the curve)", "setting": "[7]", "value": "~0.02", "unit": "µM"},
      {"measurement": "IC50 (read off the curve)", "setting": "[8]", "value": "~0.02", "unit": "µM"}
    ]}
  ]
}
